{
  "source": "paper PMC3232311",
  "about": "(Biochemistry, 2011)",
  "molecular_target": "the molecule itself",
  "experiment": "SEC",
  "data": [
    {"protein": "Mycobacterium smegmatis mycothiol S-transferase (MSMEG_0887), native enzyme (enzyme, UniProt A0QQV2 1-185, looked up) MTAREPTTKTSTGSVNESAAVRELLRDAFTRLIEHVDDLTDGLTEEVSSYRPTPEANSIAWLLWHSARCQDMQLCDIAGVEQVWTRDGWIDRFDLGLPPDDIGYGHSPEEVAKVQAPAELLAGYYHAVHKVTLEYIATVTPGEMDRVVDTNWNPPVTASARLISIIDDCAQHLGQAAYLRGIIPR", "values": [
      {"measurement": "stoichiometry N", "value": 2}
    ]}
  ]
}
